Data from PMC11169542, “A probe for NIR-II imaging and multimodal analysis of early Alzheimer’s disease by targeting CTGF” (Nature Communications, 2024).
Ends that are not written are not given here.

T1: recombinant Human CTGF protein (connective tissue growth factor) (human, UniProt P29279 27-349)
T1 construct: connective tissue growth factor (CTGF), human, recombinant; source: bought: Abcam, Cat#ab283457
T1 sequence (looked up): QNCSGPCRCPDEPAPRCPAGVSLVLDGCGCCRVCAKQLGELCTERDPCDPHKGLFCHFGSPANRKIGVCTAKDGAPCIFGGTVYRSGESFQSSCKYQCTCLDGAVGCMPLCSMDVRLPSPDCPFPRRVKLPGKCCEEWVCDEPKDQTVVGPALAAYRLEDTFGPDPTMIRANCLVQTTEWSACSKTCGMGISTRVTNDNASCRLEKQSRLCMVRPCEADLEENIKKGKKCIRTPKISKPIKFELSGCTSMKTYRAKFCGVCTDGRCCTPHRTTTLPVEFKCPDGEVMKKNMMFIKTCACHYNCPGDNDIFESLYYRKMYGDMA


Molecular target: T1, recombinant Human CTGF protein …
Test: SPR; BIAcore 8K+; recombinant human CTGF immobilised on a CM5 chip by amine coupling; eluent PBS with 0.005% Tween 20; DAG 0.5-16 μM or DGC 0.01-0.16 μM; 25 °C
Conditions: both partners purified

Row | Binder | Kd [µM]
1 | CDAGRKQKC (other, also: Au26 nanocluster bound via Cys sulfhydryl Au-S bonds, cyclic, ring closure not given here, DAG peptide, eight copies on one Au26 gold nanocluster; One Au26 gold nanocluster coated by eight DAG peptides (by MALDI-TOF-MS); also called CTGF-targeting peptide-coated gold nanocluster; source: synthesised from DAG peptide and HAuCl4 at 55 °C, purified by ultrafiltration (MWCO 3 kDa)) [DGC probe (peptide-coated gold nanocluster, Au26DAG8)] | 0.0219
2 | CDAGRKQKC (also: cyclic peptide, ring not given here, CTGF-targeting peptide DAG; also called free DAG; DAG peptide; source: synthetic peptide (solid-phase method, Beijing Scilight Biotechnology LLC, purity 95%)) [cyclic peptide Cys-Asp-Ala-Gly-Arg-Lys-Gln-Lys-Cys (DAG)] | 22.3
